Data on 120 sequences can be found in the supplement of paper PMC10126150.

± gives the standard deviation of the averaged measurements.
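Further: ATP exposure 15 min at 22 °C before imaging.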

The series concerns ATP. In words: switch fluorescence ratio, 500 uM ATP over buffer (Cy3 cluster intensity, sum of 5 cycles each) (fold (ratio)); higher = stronger signal-on switching upon ATP binding; sequences stand for … in TCGTCGGCAGCGTCAGATGTGTATAAGAGACAGTTTTTTTTTTTTTTTTTTTTTTTTT…TC. To be noted: aptamer strand: ATP DNA aptamer (quencher-CACCTGGGGGAGTATTGCGGAGGAAGG + anchor), 100 nM annealed; ATP concentration: 500 uM. In outline:
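Between each of five buffer/ATP cycles, the flow-cell was stripped with NaOH and re-annealed. Each cycle imaged Cy3-labelled switching-strand clusters, annealed to 100 nM quencher-labelled ATP aptamer on a modified Illumina MiSeq flow-cell, first in selection buffer and then after 15 min with 500 uM ATP at 22 °C. The fluorescence ratio is summed target-cycle over summed buffer-cycle Cy3 intensity per cluster, averaged per switch-domain sequence, with clusters outside 100-1000 RFU excluded.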
Consider CTCGGGGGTA, for which the switch fluorescence ratio is 0.963 ± 0.031.

On to TTATCCAATT, for which the switch fluorescence ratio came to 0.9804 ± 0.0089.

Regarding TCTGTAGTTG, the switch fluorescence ratio came out at 0.997 ± 0.04.

For AGCCTGGGGA, the switch fluorescence ratio came to 1.001 ± 0.0018.

CGGGTGGTTC: the switch fluorescence ratio stood at 0.994 ± 0.012.

Take GGCATAAGGG: the switch fluorescence ratio stood at 1.03 ± 0.05.

In the case of AGCTTGGAAA, the switch fluorescence ratio was determined as 1 ± 0.031.

Regarding AGTTTCGGTC, the switch fluorescence ratio was determined as 1 ± 0.028.

Turning to CCTACTTCCA, the switch fluorescence ratio was determined as 1.103 ± 0.0013.

GGTGGAAGAT: the switch fluorescence ratio came to 1 ± 0.045.

TTGGGGGCAC: the switch fluorescence ratio was 1.024 ± 0.0069.

Consider AAATTTGAAG, for which the switch fluorescence ratio is 1.02 ± 0.012.

For the sequence TATTGGGCCT, the switch fluorescence ratio came to 1 ± 0.051.

As for GGAAGAATAG, the switch fluorescence ratio came to 1.02 ± 0.038.

In the case of TGGACTTGGT, the switch fluorescence ratio was 0.97 ± 0.017.

Turning to AATTCGGGCG, the switch fluorescence ratio amounted to 1.02 ± 0.071.

As for GCCCCGGGGG, the switch fluorescence ratio was found to be 1.1 ± 0.046.

On to GCCTACAACA, for which the switch fluorescence ratio is 1.02 ± 0.029.

In the case of GGTGGGTGGA, the switch fluorescence ratio worked out at 1 ± 0.021.

As to CGAACTGCAG, the switch fluorescence ratio was 1.034 ± 0.0016.

As for CCTAATGGGC, the switch fluorescence ratio worked out at 1.014 ± 0.0092.

With GGTTGGCAGA, the switch fluorescence ratio is 0.99 ± 0.059.

Take TGTTATTTTG: the switch fluorescence ratio is 0.989 ± 0.041.

Take TGGTTGGATG: the switch fluorescence ratio was 1.003 ± 0.006.

TGGGACCTGG: the switch fluorescence ratio is 1.07 ± 0.15.

For GGTGTGTGAC, the switch fluorescence ratio was 0.999 ± 0.016.

With GAACATGCAG, the switch fluorescence ratio amounted to 1.01 ± 0.03.

TTTTCGGCCC: the switch fluorescence ratio stood at 1.01 ± 0.026.

As for GGAGGAAGGG, the switch fluorescence ratio was found to be 0.983 ± 0.025.

For TCATTAATTT, the switch fluorescence ratio was 0.9873 ± 0.0086.

For TCTCAATGCT, the switch fluorescence ratio is 1.21 ± 0.2.

TTGACGACAC: the switch fluorescence ratio was found to be 1.67 ± 0.45.

AGCCATTTGT: the switch fluorescence ratio worked out at 1.015 ± 0.0063.

For TGAAGCTGGG, the switch fluorescence ratio came out at 1.07 ± 0.12.

In the case of TGTTGTATGC, the switch fluorescence ratio turned out to be 0.9617 ± 0.0042.

In the case of TGATTGTAAT, the switch fluorescence ratio worked out at 0.9655 ± 0.0069.

Turning to TGGGTAACGA, the switch fluorescence ratio came out at 0.962 ± 0.021.

As to ACGCTTGGGA, the switch fluorescence ratio was 0.998 ± 0.048.

As to TGGGATCAGT, the switch fluorescence ratio amounted to 0.99 ± 0.021.

For TAAGGTCGGC, the switch fluorescence ratio was found to be 0.986 ± 0.028.

On to CGTATTTGGG, for which the switch fluorescence ratio is 0.999 ± 0.034.

For GGGTATTGCG, the switch fluorescence ratio is 0.977 ± 0.083.

As to ATCTTAGTGC, the switch fluorescence ratio turned out to be 1 ± 0.026.

For the sequence TAATAGTGTT, the switch fluorescence ratio turned out to be 1.024 ± 0.0092.

Regarding ATGGAGGGTA, the switch fluorescence ratio was 0.99 ± 0.016.

On to TTGACAGGGT, for which the switch fluorescence ratio is 1.03 ± 0.07.

Take AAGGTAATCC: the switch fluorescence ratio came to 1.01 ± 0.039.

In the case of TGTTGGGGCG, the switch fluorescence ratio worked out at 1.02 ± 0.069.

CAAATAGGCT: the switch fluorescence ratio was found to be 0.984 ± 0.028.

Take TTAAAAGAGA: the switch fluorescence ratio stood at 1.04 ± 0.0028.

In the case of AGTATGTCGT, the switch fluorescence ratio stood at 1.03 ± 0.024.

For TTCACTTTTG, the switch fluorescence ratio was 1.01 ± 0.028.

For ATATCGGGGG, the switch fluorescence ratio was found to be 1.01 ± 0.081.

As to GATTGTGGAC, the switch fluorescence ratio was found to be 1.1 ± 0.063.

Consider CGAAGTTTGG, for which the switch fluorescence ratio is 1.02 ± 0.02.

For CAAAAATGTT, the switch fluorescence ratio turned out to be 1.17 ± 0.19.

With GGGTGCGGCT, the switch fluorescence ratio was determined as 1.11 ± 0.14.

Take TCTATTAGTA: the switch fluorescence ratio was 0.932 ± 0.062.

Consider TTGAGGTGGC, for which the switch fluorescence ratio was 0.982 ± 0.018.

Take CAAGCGTCAC: the switch fluorescence ratio came to 1.12 ± 0.019.

Take CCTGTTGCGA: the switch fluorescence ratio was 2.66 ± 0.52.

As to TTGGCTTAGT, the switch fluorescence ratio was 0.991 ± 0.034.

Regarding TCGCGCAGAA, the switch fluorescence ratio worked out at 1.061 ± 0.0063.

Turning to AGGTTGCCGG, the switch fluorescence ratio worked out at 1.04 ± 0.046.

On to GACGAACCGG, for which the switch fluorescence ratio is 1.051 ± 0.0095.

Consider GGGGGAACAG, for which the switch fluorescence ratio came to 0.991 ± 0.011.

As for TAGTTGCTCA, the switch fluorescence ratio amounted to 0.993 ± 0.046.

For GGCTCTGATG, the switch fluorescence ratio amounted to 1.01 ± 0.011.

For GCTTGAAATT, the switch fluorescence ratio amounted to 0.986 ± 0.062.

Consider TTGTACGTGG, for which the switch fluorescence ratio came out at 1.07 ± 0.023.

For the sequence TACCATGGCG, the switch fluorescence ratio is 0.9983 ± 0.0058.

Take GATAGGTTCG: the switch fluorescence ratio turned out to be 0.983 ± 0.016.

On to TTCATCTGCA, for which the switch fluorescence ratio was found to be 2.19 ± 1.5.

CCACCGGGGA: the switch fluorescence ratio is 1.85 ± 0.49.

As for AACGGCAGGG, the switch fluorescence ratio was determined as 1 ± 0.024.

Regarding TTTTTTCTTG, the switch fluorescence ratio worked out at 1.02 ± 0.034.

Take TTGTGGGGAC: the switch fluorescence ratio was determined as 1 ± 0.033.

Turning to GGGGGCGAAT, the switch fluorescence ratio was found to be 1.01 ± 0.011.

On to TTTATTTTAT, for which the switch fluorescence ratio was 1.02 ± 0.057.

On to ATGGTGAAGG, for which the switch fluorescence ratio is 1.01 ± 0.066.

Turning to CTCGATTGTA, the switch fluorescence ratio worked out at 0.999 ± 0.048.

On to CGGGCGGGAT, for which the switch fluorescence ratio was 1.04 ± 0.029.

As for TTTGTGGAGC, the switch fluorescence ratio was found to be 1.04 ± 0.071.

AGTGGAGCTG: the switch fluorescence ratio worked out at 1.02 ± 0.038.

For the sequence CAGGTTCTAC, the switch fluorescence ratio came out at 1.015 ± 0.0032.

Take TTTGGGCTTG: the switch fluorescence ratio is 1.013 ± 0.0054.

In the case of TGTACGTAGG, the switch fluorescence ratio came to 1.24 ± 0.21.

As for TATACTCCTG, the switch fluorescence ratio turned out to be 1.16 ± 0.041.

With TCTTAGGAGG, the switch fluorescence ratio is 0.9691 ± 0.0023.

As to TTTATACCTA, the switch fluorescence ratio came out at 1.03 ± 0.023.

As for TATCTATCAT, the switch fluorescence ratio turned out to be 0.969 ± 0.024.

For the sequence TATTCAACGG, the switch fluorescence ratio was determined as 1.02 ± 0.028.

In the case of GGCTTAGGGC, the switch fluorescence ratio was 1.02 ± 0.027.

Turning to TTTTGAAATG, the switch fluorescence ratio amounted to 0.965 ± 0.017.

For TTAATGCTTT, the switch fluorescence ratio was 1.13 ± 0.23.

Regarding ACGCAATGAT, the switch fluorescence ratio worked out at 5.18 ± 0.069.

Turning to TCGTAGAATA, the switch fluorescence ratio was determined as 1.01 ± 0.032.

Take CTTGGGTTGG: the switch fluorescence ratio came to 0.997 ± 0.028.

In the case of GCGGTTTCAT, the switch fluorescence ratio was determined as 0.9984 ± 0.0098.

For TTAATTAGGT, the switch fluorescence ratio turned out to be 1.02 ± 0.071.

As to GAGGGACAAT, the switch fluorescence ratio stood at 0.9882 ± 0.0066.

For the sequence TACGTAGGCA, the switch fluorescence ratio stood at 1.073 ± 0.0077.

For TCGTCGATTC, the switch fluorescence ratio is 1.12 ± 0.02.

Regarding TCGTTGATTT, the switch fluorescence ratio worked out at 1.016 ± 0.01.

For TCGGAACTCG, the switch fluorescence ratio was 0.9824 ± 0.0063.

In the case of GGGATAGAAG, the switch fluorescence ratio was 0.971 ± 0.019.

Take ACGCCGTGTG: the switch fluorescence ratio was determined as 0.999 ± 0.022.

For GTTGGGTCAT, the switch fluorescence ratio was 1.01 ± 0.045.

Take ATTGTAGGGA: the switch fluorescence ratio is 1 ± 0.015.

Take TAACGGTATA: the switch fluorescence ratio is 1.11 ± 0.058.

Turning to CGACTAAGAG, the switch fluorescence ratio was 1.02 ± 0.025.

For the sequence CAAACAGTTT, the switch fluorescence ratio was 0.994 ± 0.029.

With CGGTGTTGTC, the switch fluorescence ratio worked out at 0.964 ± 0.0037.

In the case of TGCTTGCAAA, the switch fluorescence ratio worked out at 1.06 ± 0.069.

For AAGTAAAAAT, the switch fluorescence ratio turned out to be 1.05 ± 0.036.

Take CGCATGTCGA: the switch fluorescence ratio stood at 1.03 ± 0.025.

With GCTGGGAATG, the switch fluorescence ratio turned out to be 0.98 ± 0.033.

With TTCACAAGGT, the switch fluorescence ratio came to 1.004 ± 0.0049.

TTTCCTGGAT: the switch fluorescence ratio is 1.04 ± 0.052.

In the case of TCTAGTGTGC, the switch fluorescence ratio stood at 0.9772 ± 0.0086.
